Reference: US20240398942A1 (CHIA TAI TIANQING PHARMACEUTICAL GROUP, published 2024)
Numbering of substitutions follows the chain as printed. Values belong to the binder of their own block, whether it stands above or below them.

Tests used:
[1] = target: T1, recombinant human CD40-his (Acro biosystems, Cat. No. CD0-H5228) (human, UniProt P25942 21-193); assay: SPR (Biacore T200), antibody captured on anti-human IgG chip, CD40-his as analyte, 1:1 fit
T1 construct: Bought protein; also called human CD40-his protein; not shown: His tag
T1 sequence (P25942 21-193 limits assumed): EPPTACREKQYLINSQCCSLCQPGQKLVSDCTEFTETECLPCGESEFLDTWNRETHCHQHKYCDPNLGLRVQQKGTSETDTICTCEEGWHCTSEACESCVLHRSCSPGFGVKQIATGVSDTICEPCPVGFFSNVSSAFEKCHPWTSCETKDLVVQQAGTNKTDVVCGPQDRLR
Text: (§1) Briefly, a goat anti-human IgG (GE Healthcare, Cat. No. BR100839, human antibody capture kit) was covalently linked to a CM5 chip (GE Healthcare, Cat. No. BR100530, carboxymethylated dextran-coated chip) via the primary amine group using a standard amine coupling kit supplied by Biacore (GE Healthcare, Pittsburgh, PA, USA). Unreacted portions on the biosensor surface were blocked with ethanolamine. Then, the anti-CD40 antibody of the present application and two benchmark antibodies (BM1 (dacetuzumab, Genentech Inc., also referred to CD40-BM1, prepared in-house; the heavy and light chain amino acid sequences are set forth in SEQ ID NOs: 40 and 41, respectively) and BM2 (selicrelumab, Abgenix Inc., also referred to CD40-BM2, prepared in-house; the heavy and light chain amino acid sequences are set forth in SEQ ID NOS: 42 and 43, respectively)) at a concentration of 66.67 nM were directed through the chip at a flow rate of 10 μL/min. Then, serially diluted recombinant human CD40-his (Acro biosystems, Cat. No. CD0-H5228, serially 2-fold diluted from 80 nM in HBS-EP⁺ buffer (supplied by Biacore)) or cynomolgus monkey CD40-his protein (Acro biosystems, Cat. No. CD0-C52H6, serially 2-fold diluted from 80 nM in HBS-EP⁺ buffer (supplied by Biacore)) was directed through the chip at a flow rate of 30 μL/min. The antigen-antibody binding kinetics was tracked for 2 min and the dissociation kinetics was tracked for 10 min. The association and dissociation curves were fitted to a 1:1 Langmuir binding model using BIAcore evaluation software. KD, Kₐ, and Kd values were determined.

[2] = target: T2, cynomolgus monkey CD40-his protein (Acro biosystems, Cat. No. CD0-C52H6) (cynomolgus monkey, UniProt G7PG38 21-193); assay: as above
T2 construct: Bought protein; not shown: His tag
Text: as §1

human CD40-Fc protein = target: T3, human CD40-Fc protein (human, biotinylated (sites not given) in the capture ELISA and the benchmark blocking ELISA; not biotinylated in the ligand blocking ELISA); assay: capture ELISA: antibody captured on coated goat anti-human IgG F(ab')2, biotinylated human CD40-Fc 1.15 nM, streptavidin-HRP, OD(450-630)
T3 construct: also called biotinylated human CD40-Fc
T3 sequence (chain, as listed by the source limits assumed): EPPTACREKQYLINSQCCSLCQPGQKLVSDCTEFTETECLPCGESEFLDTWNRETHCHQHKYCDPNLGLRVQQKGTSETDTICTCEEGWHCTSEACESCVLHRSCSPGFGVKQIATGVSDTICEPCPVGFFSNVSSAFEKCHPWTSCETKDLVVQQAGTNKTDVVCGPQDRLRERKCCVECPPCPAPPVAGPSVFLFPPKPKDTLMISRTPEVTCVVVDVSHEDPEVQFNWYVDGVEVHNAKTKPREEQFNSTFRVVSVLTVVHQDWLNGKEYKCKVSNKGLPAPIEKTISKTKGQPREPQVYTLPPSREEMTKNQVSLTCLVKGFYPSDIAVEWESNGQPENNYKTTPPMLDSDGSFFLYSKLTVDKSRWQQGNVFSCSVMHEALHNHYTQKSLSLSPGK
Method: The plate was washed once with a washing buffer (PBS+0.05% v/v of Tween-20, PBST) and then blocked with 200 μL/well blocking buffer (PBST containing 5% w/v of skim milk) for 2 h at 37° C. The plate was washed 4 times, and the anti-CD40 antibody of the present application, BM1, BM2, and a negative control hIgG (human immunoglobulin for intravenous injection (pH 4), Hualan Biological Engineering Inc.) serially 5-fold diluted from 66.7 nM in a PBST containing 2.5% w/v of skim milk was added at 100 μL per well. The plate was incubated for 40 min at 37° C. and washed 4 times. A biotinylated human CD40-Fc protein (amino acid residues 21-193 of SEQ ID NO: 30 linked to the N terminus of amino acid residues 99-330 of SEQ ID NO: 28, dissolved in PBST containing 2.5% w/v of skim milk at a concentration of 1.15 nM) was added at 100 μL/well to a 96-well plate coated with the anti-CD40 antibody. The plate was incubated at 37° C. for 40 min and washed 4 times. An HRP-labeled streptavidin (diluted at 1:10000 in PBST, Jackson Immuno Research, Cat. No. 016-030-084) was added at 100 μL/well, and the plate was incubated at 37° C. for another 40 min. After the last wash, 100 μL/well of ELISA substrate TMB (Innoreagents, Cat. No. TMB-S-002) was added and the plate was incubated at room temperature. After 3-10 min, the reaction was stopped by adding 1 M H₂SO₄ at 50 µL/well, and the absorbance of each well was read on a microplate reader using the dual wavelength mode (TMB detection wavelength: 450 nm, reference wavelength: 630 nm). Curves of OD(450-630) values vs. antibody concentration were plotted. Data were analyzed using Graphpad Prism software, and EC₅₀ values were obtained.

[3] = target: T1, recombinant human CD40-his (Acro …); assay: BLI (Octet RED 96), antibody captured on AHC sensor, human CD40-his as analyte, 1:1 fit
Method: (§2) After six days of culture in a shake flask, the cell supernatant containing the humanized antibodies huC1H1-V1 to huC1H1-V4 was harvested and the binding affinity of the antibodies to human CD40 was determined on an Octet system (Fortebio, Octet RED 96) according to the following procedures. Briefly, an anti-human IgG Fc capture (AHC) biosensor (from ForteBio) was pre-soaked in a 10 mM glycine solution (pH 1.5) for 3 s, and then soaked in a running buffer (PBST containing 0.5% w/v of BSA) for 3 s. The pre-soaking and soaking procedures were repeated 3 times. Then, the sensor was soaked in the cell supernatant containing the humanized anti-CD40 antibody, chimeric antibody C1H1 dissolved in HBS-EP⁺ buffer at a concentration of 5 μg/mL, or the benchmark dissolved in HBS-EP⁺ buffer at a concentration of 5 μg/mL for 120 s, and then soaked in the running buffer for 5 min. The new baseline was run in the running buffer for 180 s. The sensor was then soaked for 120 s in human CD40-his protein (Acro biosystems, Cat. No. CD0-H5228) 2-fold serially diluted from 40 nM in the running buffer and for 10 min in the running buffer […]. Finally, the sensor was pre-soaked in a 10 mM glycine solution (pH 1.5) for 3 s, and then soaked in the running buffer for 3 s. The pre-soaking and soaking procedures were repeated 3 times. The association and dissociation curves were fitted to a 1:1 Langmuir binding model using ForteBio Data Analysis 8.1.

[4] = target: T1, recombinant human CD40-his (Acro …); assay: BLI (Octet RED 96), antibody captured from cell supernatant on AHC sensor, human CD40-his as analyte, 1:1 fit
Method: as §2

B3: chimeric antibody C1H1 (antibody, human IgG1, kappa, V domains shown)
VH: EVKLVESGGGLVKPGASLKLSCAASGFTFSNYGISWVRQTSDKRLEWVASISSGGDNTYYPDNVKGRFTISRENAKNTLYLQMSSLKSEDTALYYCARAGEKAMDYWGQGTSVTVSS
VL: DIVLTQSPVTLSVTPGDSVSLSCRASQTINNNLHWYQQKSHESPRLLIKYASQSISGIPSRFSGSGSGTDFTLSINSVETEDFGIYFCQQFSSWPLTFGAGTKLELKR
notes: also called Chimeric C1H1
Kd [3]: 0.633 nM
koff [3]: 0.000929 s⁻¹
kon [3]: 1.47e+06 M⁻¹ s⁻¹
Kd [1]: 0.861 nM
koff [1]: 0.00157 s⁻¹
kon [1]: 1.82e+06 M⁻¹ s⁻¹
Kd [2]: 1.06 nM
koff [2]: 0.00148 s⁻¹
kon [2]: 1.39e+06 M⁻¹ s⁻¹

B4: humanized antibody huC1H1-V1 (antibody, human IgG2, kappa, V domains shown)
VH: EVQLVESGGGLVKPGGSLRLSCAASGFTFSNYGISWVRQAPGKGLEWVASISSGGDNTYYPDNVKGRFTISRDNAKNSLYLQMNSLRAEDTAVYYCARAGEKAMDYWGQGTLVTVSS
VL: EIVLTQSPATLSLSPGERATLSCRASQTINNNLHWYQQKPGQAPRLLIKYASQSISGIPARFSGSGSGTDFTLTISSLEPEDFAVYFCQQFSSWPLTFGGGTKVEIKR
notes: Human IgG2 / kappa
Kd [4]: 0.904 nM
koff [4]: 0.00128 s⁻¹
kon [4]: 1.41e+06 M⁻¹ s⁻¹

B5: humanized antibody huC1H1-V2 (antibody, human IgG2, kappa, V domains shown)
VH: B4 VH with A49S
VL: B4 VL
notes: Human IgG2 / kappa
Kd [4]: 0.596 nM
koff [4]: 0.000981 s⁻¹
kon [4]: 1.65e+06 M⁻¹ s⁻¹

The next lines start with the values.

Kd [1]: 8.87 nM
koff [1]: 0.00656 s⁻¹
kon [1]: 739000 M⁻¹ s⁻¹
Kd [2]: 9.89 nM
koff [2]: 0.00616 s⁻¹
kon [2]: 623000 M⁻¹ s⁻¹
EC50 (human CD40-Fc protein): 0.628 nM
B1: BM1 (dacetuzumab) (antibody, human IgG1, kappa, V domains shown)
VH: EVQLVESGGGLVQPGGSLRLSCAASGYSFTGYYIHWVRQAPGKGLEWVARVIPNAGGTSYNQKFKGRFTLSVDNSKNTAYLQMNSLRAEDTAVYYCAREGIYWWGQGTLVTVSS
VL: DIQMTQSPSSLSASVGDRVTITCRSSQSLVHSNGNTFLHWYQQKPGKAPKLLIYTVSNRFSGVPSRFSGSGSGTDFTLTISSLQPEDFATYFCSQTTHVPWTFGQGTKVEIKR
notes: Benchmark antibody, prepared in-house; also called CD40-BM1; benchmark

Kd [3]: 1.12 nM
koff [3]: 0.000979 s⁻¹
kon [3]: 874000 M⁻¹ s⁻¹
EC50 (human CD40-Fc protein): 1.36 nM
B2: BM2 (selicrelumab) (antibody, human IgG2, kappa, V domains shown)
VH: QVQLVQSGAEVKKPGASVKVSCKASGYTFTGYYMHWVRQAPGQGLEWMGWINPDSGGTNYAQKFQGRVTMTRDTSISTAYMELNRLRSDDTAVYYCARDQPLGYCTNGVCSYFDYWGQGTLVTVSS
VL: DIQMTQSPSSVSASVGDRVTITCRASQGIYSWLAWYQQKPGKAPNLLIYTASTLQSGVPSRFSGSGSGTDFTLTISSLQPEDFATYYCQQANIFPLTFGGGTKVEIKR
notes: Benchmark antibody, prepared in-house; also called CD40-BM2; benchmark
